# Target: T1, CSP Protein (Plasmodium falciparum, UniProt Q7K740 19-374)
# T1 construct: also called circumsporozoite protein; complete CSP protein
# Test: SPR, antibody on chip;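 further: antibodies immobilized on a Carterra chip, directly or via anti-human Fc capture, at two spots each, with CSP flowed over at 4-5 concentrations peaking at 0.5-8 µg/mL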
# Procedure: For SPR, each antibody was either directly coupled to a Carterra Chip or coupled using a goat anti-human Fc antibody. The uncoupled antibodies were washed off and various concentration gradients of the targets were flowed over the antibodies, where the highest concentration of each target was in the range 0.5-8 μg/mL. Each antibody was immobilized in two different locations on the chip to allow for duplicate measurements. The affinity for each antibody-target combination was determined using 4-5 target concentrations in Mathematica software. If variation between the two duplicates was >3-fold, the antibody-target measurement was repeated.
# T1 sequence (Q7K740 19-374 limits assumed): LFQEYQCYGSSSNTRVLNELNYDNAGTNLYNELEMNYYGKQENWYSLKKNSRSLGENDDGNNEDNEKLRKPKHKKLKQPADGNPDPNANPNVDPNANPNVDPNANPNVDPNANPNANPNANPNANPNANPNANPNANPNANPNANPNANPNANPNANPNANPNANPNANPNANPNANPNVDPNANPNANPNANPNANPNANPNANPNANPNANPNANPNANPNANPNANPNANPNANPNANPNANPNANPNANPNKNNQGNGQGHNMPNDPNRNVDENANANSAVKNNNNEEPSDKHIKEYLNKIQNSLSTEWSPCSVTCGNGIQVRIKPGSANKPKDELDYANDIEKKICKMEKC
row,Binder,Kd [pM]
1,"AB-007028 (antibody, V domains shown) VH: QMQLVESGGGVVQPGRSLRLSCAASGFTFSTYAMHWVRQAPGQGLQWVAVISYHSTNKYYEDSVRGRFTISRDNSKNTLYLQMNSLRAEDTAVYYCARDGYSSSFFDFWGQGTLVTVSS VL: DIQMTQSPSTLSASVGDRVTITCRASQSISRWLAWYQQQPGKAPKLLMSGASVLESGVPSRFSGSGSGTEFTLTISSLQPDDFATYYCQHYNSYFVTFGQGTKVEIK",45.7
2,"AB-007036 (antibody, V domains shown) VH: QMQLVESGGGVVQPGRSLRLSCTASGFTFSTYAMHWVRQSPGQGLQWVAVISYDSTNKYYEDSVRGRFTISRDNSKNTLYLQMNSLRAEDTAVYYCARDGYSSSFFDFWGQGTLVTVSS VL: DIQMTQSPSTLSASVGDRVAITCRASQSISRWLAWYQQQPGKAPKLLMSGASVLESGVPSRFSGSGSGTEFTLTISSLQPDDFATYYCQHYNSYFVTFGQGTKVEIK",96.7
3,"AB-007032 (antibody, V domains shown) VH: QVQLVESGGGVVQPGRSLRLSCAASGFTFSTYAMHWVRQAPGQGLQWVAVISYHSTNKYYEDSVRGRFTISRDNSKNTLYLQMNSLRAEDTAVYYCARDGYSSSFFDFWGQGTLVTVSS VL: DIQMTQSPSTLSASVGDRVTITCRASQSISRWLAWYQQQPGKAPKLLISGASVLESGVPSRFSGSGSGTEFTLTISSLQPDDFATYYCQHYNSYFVTFGQGTKVEIK",46.9
4,"AB-007044 (antibody, V domains shown) VH: QMQLVESGGGVVQPGRSLRLSCTASGFTFSTYAMHWVRQSPGQGLQWVAVISYHSTNKYYEESVRGRFTISRDNSKNTLYLQMNSLRAEDTAVYYCARDGYSSSFFDFWGQGTLVTVSS VL: DIQMTQSPSTLSASVGDRVAITCRASQSISRWLAWYQQQPGKAPKLLMSGASVLESGVPSRFSGSGSGTEFTLTISSLQPDDFATYYCQHYNSYFVTFGQGTKVEIK",31.9
5,"AB-007049 (antibody, V domains shown) VH: QMQLVESGGGVVQPGRSLRLSCTASGFTFSTYAMHWVRQSPGQGLQWVAVISNHETNKYYEDSVRGRFTISRDNSKNTLYLQMNSLRAEDTAVYYCARDGYSSSFFDFWGQGTLVTVSS VL: DIQMTQSPSTLSASVGDRVAITCRASQSISRWLAWYQQQPGKAPKLLMSGASVLESGVPSRFSGSGSGTEFTLTISSLQPDDFATYYCQHYNSYFVTFGQGTKVEIK",152
6,"AB-007033 (antibody, V domains shown) VH: QMQLVESGGGVVQPGRSLRLSCAASGFTFSTYAMHWVRQAPGQGLEWVAVISYHSTNKYYADSVRGRFTISRDNSKNTLYLQMNSLRAEDTAVYYCARDGYSSSFFDFWGQGTLVTVSS VL: DIQMTQSPSTLSASVGDRVTITCRASQSISRWLAWYQQQPGKAPKLLMSGASVLESGVPSRFSGSGSGTEFTLTISSLQPDDFATYYCQHYNSYFVTFGQGTKVEIK",40.8
7,"AB-007034 (antibody, V domains shown) VH: QVQLVESGGGVVQPGRSLRLSCAASGFTFSTYAMHWVRQAPGQGLEWVAVISYHSTNKYYADSVRGRFTISRDNSKNTLYLQMNSLRAEDTAVYYCARDGYSSSFFDFWGQGTLVTVSS VL: DIQMTQSPSTLSASVGDRVTITCRASQSISRWLAWYQQQPGKAPKLLISGASVLESGVPSRFSGSGSGTEFTLTISSLQPDDFATYYCQHYNSYFVTFGQGTKVEIK",82.4
8,"AB-007048 (antibody, V domains shown) VH: QMQLVESGGGVVQPGRSLRLSCTASGFTFSTYSMHWVRQSPGQGLQWVAVISYHSTNKYYEDSVRGRFTISRDNSKNTLYLQMNSLRAEDTAVYYCARDGYSSSFFDFWGQGTLVTVSS VL: DIQMTQSPSTLSASVGDRVAITCRASQSISRWLAWYQQQPGKAPKLLMSGASVLESGVPSRFSGSGSGTEFTLTISSLQPDDFATYYCQHYNSYFVTFGQGTKVEIK",437
9,"AB-007037 (antibody, V domains shown) VH: QMQLVESGGGVVQPGRSLRLSCTASGFTFSTYAMHWVRQSPGQGLQWVAVISYHSTNKYYEDSVKGRFTISRDNSKNTLYLQMNSLRAEDTAVYYCARDGYSSSFFDFWGQGTLVTVSS VL: DIQMTQSPSTLSASVGDRVAITCRASQSISRWLAWYQQQPGKAPKLLMSGASVLESGVPSRFSGSGSGTEFTLTISSLQPDDFATYYCQHYNSYFVTFGQGTKVEIK",34.6
10,"AB-007043 (antibody, V domains shown) VH: QMQLVESGGGVVQPGRSLRLSCTASGFTFSTYAMHWVRQSPGQGLQWVAVISYHSTNKYYEDSVRGRFTISRDNSKNTLYLQMNSLRAEDTAVYYCARDGYSSSFFDFWGQGTLVTVSS VL: DIQMTQSPSTLSASVGDRVAITCRASQSISRWLAWYQQQPGKAPKLLMSGASVLEDGVPSRFSGSGSGTEFTLTISSLQPDDFATYYCQHYNSYFVTFGQGTKVEIK",42.6
11,"AB-007040 (antibody, V domains shown) VH: QMQLVESGGGVVQPGRSLRLSCTASGFTFSTYAMHWVRQSPGQGLQWVAVISYHSTNKYYEDSVRGRFTISRDNSKNTLYLQMNSLRAEDTAVYYCARDGYSSSFFDFWGQGTLVTVSS VL: DIQMTQSPSTLSASVGDRVAITCRASQSISRWLAWYQQQPGKAPKLLMSGASVLESGVPSRFSGSGSGTEFTLTISSLQPDDFATYYCQHYNSYYVTFGQGTKVEIK",44.7
12,"AB-007030 (antibody, V domains shown) VH: QMQLVESGGGVVQPGRSLRLSCTASGFTFSTYAMHWVRQSPGQGLEWVAVISYHSTNKYYADSVRGRFTISRDNSKNTLYLQMNSLRAEDTAVYYCARDGYSSSFFDFWGQGTLVTVSS VL: DIQMTQSPSTLSASVGDRVAITCRASQSISRWLAWYQQQPGKAPKLLMSGASVLESGVPSRFSGSGSGTEFTLTISSLQPDDFATYYCQHYNSYFVTFGQGTKVEIK",132
13,"AB-007031 (antibody, V domains shown) VH: QMQLVESGGGVVQPGRSLRLSCTASGFTFSTYAMHWVRQSPGQGLQWVAVISYHSTNKYYEDSVRGRFTISRDNSKNTLYLQMNSLRAEDTAVYYCARDGYSSSFFDFWGQGTLVTVSS VL: DIQMTQSPSTLSASVGDRVAITCRASQSISRWLAWYQQQPGKAPKLLISGASVLESGVPSRFSGSGSGTEFTLTISSLQPDDFATYYCQHYNSYFVTFGQGTKVEIK",49.6
14,"AB-007047 (antibody, V domains shown) VH: QMQLVESGGGVVQPGRSLRLSCTASGFTFSNYAMHWVRQSPGQGLQWVAVISYHSTNKYYEDSVRGRFTISRDNSKNTLYLQMNSLRAEDTAVYYCARDGYSSSFFDFWGQGTLVTVSS VL: DIQMTQSPSTLSASVGDRVAITCRASQSISRWLAWYQQQPGKAPKLLMSGASVLESGVPSRFSGSGSGTEFTLTISSLQPDDFATYYCQHYNSYFVTFGQGTKVEIK",175
15,"AB-007038 (antibody, V domains shown) VH: QMQLVESGGGVVQPGRSLRLSCTASGFTFSTYAMHWVRQSPGQGLQWVAVISYHSTNKYYEDSVRGRFTISRDNSKNTLYLQMNSLRAEDTAVYYCARDGYSSSFFDYWGQGTLVTVSS VL: DIQMTQSPSTLSASVGDRVAITCRASQSISRWLAWYQQQPGKAPKLLMSGASVLESGVPSRFSGSGSGTEFTLTISSLQPDDFATYYCQHYNSYFVTFGQGTKVEIK",29
16,"AB-007039 (antibody, V domains shown) VH: QMQLVESGGGVVQPGRSLRLSCTASGFTFSTYAMHWVRQSPGQGLQWVAVISYHSTNKYYEDSVRGRFTISRDNSKNTLYLQMNSLRAEDTAVYYCARDGYSSSFFDFWGQGTLVTVSS VL: DIQMTQSPSTLSASVGDRVAITCRASQSISRWLAWYQQQPGKAPKLLMSGASVLESGVPSRFSGSGSGTEFTLTISSLQPDDFATYYCQHYNSYSVTFGQGTKVEIK",106
17,"AB-007046 (antibody, V domains shown) VH: QMQLVESGGGVVQPGRSLRLSCTASGFTFSTYAMHWVRQSPGQGLQWVAVISYHSTNKYYEDSVRGRFTISRDNSKNTLYLQMNSLRAEDTAVYYCARDGYSSSFFDFWGQGTLVTVSS VL: DIQMTQSPSTLSASVGDRVAITCRASQSISRWLAWYQQQPGKAPKLLMSGASVLESGVPSRFSGSGSGTEFTLTISSLQPDDFATYYCQHYYSYFVTFGQGTKVEIK",36.4
18,"AB-007035 (antibody, V domains shown) VH: QMQLVESGGGVVQPGRSLRLSCTASGFTFSSYAMHWVRQSPGQGLQWVAVISYHSTNKYYEDSVRGRFTISRDNSKNTLYLQMNSLRAEDTAVYYCARDGYSSSFFDFWGQGTLVTVSS VL: DIQMTQSPSTLSASVGDRVAITCRASQSISRWLAWYQQQPGKAPKLLMSGASVLESGVPSRFSGSGSGTEFTLTISSLQPDDFATYYCQHYNSYFVTFGQGTKVEIK",51.3
19,"AB-007045 (antibody, V domains shown) VH: QMQLVESGGGVVQPGRSLRLSCTASGFTFSTYAMHWVRQSPGQGLQWVAVISYHSTNKYYEDSVRGRFTISRDNSKNTLYLQMNSLRAEDTAVYYCARDAYSSSFFDFWGQGTLVTVSS VL: DIQMTQSPSTLSASVGDRVAITCRASQSISRWLAWYQQQPGKAPKLLMSGASVLESGVPSRFSGSGSGTEFTLTISSLQPDDFATYYCQHYNSYFVTFGQGTKVEIK",284
20,"AB-007041 (antibody, V domains shown) VH: QMQLVESGGGVVQPGRSLRLSCTASGFTFSDYAMHWVRQSPGQGLQWVAVISYHSTNKYYEDSVRGRFTISRDNSKNTLYLQMNSLRAEDTAVYYCARDGYSSSFFDFWGQGTLVTVSS VL: DIQMTQSPSTLSASVGDRVAITCRASQSISRWLAWYQQQPGKAPKLLMSGASVLESGVPSRFSGSGSGTEFTLTISSLQPDDFATYYCQHYNSYFVTFGQGTKVEIK",43.9
21,"AB-007042 (antibody, V domains shown) VH: QMQLVESGGGVVQPGRSLRLSCTASGFTFSTYAMHWVRQSPGQGLQWVAVISYHSTNKYYEDSVRGRFTISRDNSKNTLYLQMNSLRAEDTAVYYCARDGYSSSFFDFWGQGTLVTVSS VL: DIQMTQSPSTLSASVGDRVAITCRASQDISRWLAWYQQQPGKAPKLLMSGASVLESGVPSRFSGSGSGTEFTLTISSLQPDDFATYYCQHYNSYFVTFGQGTKVEIK",34
22,"AB-007050 (antibody, V domains shown) VH: QMQLVESGGGVVQPGRSLRLSCTASGFTFSTYAMHWVRQSPGQGLQWVAVISQHSTNKYYEDSVRGRFTISRDNSKNTLYLQMNSLRAEDTAVYYCARDGYSSSFFDFWGQGTLVTVSS VL: DIQMTQSPSTLSASVGDRVAITCRASQSISRWLAWYQQQPGKAPKLLMSGASVLESGVPSRFSGSGSGTEFTLTISSLQPDDFATYYCQHYNSYFVTFGQGTKVEIK",147
